Biological target: the molecule itself
Experiment: single-molecule TIRF microscopy of DNA looping

B1: enhanced green fluorescent protein-MuB fusion (EGFP-MuB) (natural protein, bacteriophage Mu, UniProt P03763 1-312, looked up)
chain: MNISDIRAGLRTLVENEETTFKQIALESGLSTGTISSFINDKYNGDNERVSQMLQRWLEKYHAVAELPEPPRFVETQTVKQIWTSMRFASLTESIAVVCGNPGVGKTEAAREYRRTNNNVWMITITPSCASVLECLTELAFELGMNDAPRRKGPLSRALRRRLEGTQGLVIIDEADHLGAEVLEELRLLQESTRIGLVLMGNHRVYSNMTGGNRTVEFARLFSRIAKRTAINKTKKADVKAIADAWQINGEKELELLQQIAQKPGALRILNHSLRLAAMTAHGKGERVNEDYLRQAFRELDLDVDISTLLRN
B1: binds.

Reference: article PMC2908525 (Molecular cell, 2010)
